This is an account of results in publication PMC9187739, “MIF homolog d-dopachrome tautomerase (D-DT/MIF-2) does not inhibit accumulation and toxicity of misfolded SOD1” (Scientific Reports, 2022).

This assay addresses T1, human SOD1^G93A (Zn/Cu superoxide dismutase, glycine to alanine at position 93) (human, UniProt P00441 1-154, G93A).
T1 construct: Zn/Cu superoxide dismutase (SOD1), human, with the ALS-linked mutation G93A; The introduction calls SOD1 a 32 kDa homodimer; also called mutant SOD1^G93A; mutant SOD1; source: E. coli BL-21, grown without Zn2+ and Cu2+ supplements, purified to homogeneity under non-denaturing conditions
The assay is described as follows: co-IP; purified SOD1^G93A (2 µg) incubated with recombinant D-DT (0.2, 0.5, 1, 2, 5 and 10 µg); immunoprecipitation overnight at 4 °C with B8H10 antibody (misfolded SOD1) crosslinked to protein G Dynabeads; IP buffer 0.05 M Tris pH 7.4, 0.4 M NaCl, 0.5% Nonidet P-40; bound and unbound fractions immunoblotted for SOD1 and D-DT. Conditions: both partners purified.

T1 sequence (P00441 whole entry G94A): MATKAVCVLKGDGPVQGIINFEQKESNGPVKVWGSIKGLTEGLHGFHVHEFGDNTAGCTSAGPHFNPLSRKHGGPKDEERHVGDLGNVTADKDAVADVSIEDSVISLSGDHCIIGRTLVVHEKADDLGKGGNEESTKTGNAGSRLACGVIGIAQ

B1: recombinant human D-dopachrome tautomerase (D-DT/MIF-2) (enzyme)
chain: PFLELDTNLPANRVPAGLEKRLCAAAASILGKPADRVNVTVRPGLAMALSGSTEPCAQLSISSIGVVGTAEDNRSHSAHFFEFLTKELALGQDRILIRFFPLESWQIGKIGTVMTFL
notes: D-dopachrome tautomerase (D-DT, MIF-2), human; also called recombinant D-DT; source: recombinant
Turning to B1, the binding result is on record as “binds”.
